PMC6708749

Legend:
Assay in all cases: SEC
[1] = molecular target: ELIC-α1GABAAR chimera, Q242L mutant (Erwinia chrysanthemi | human)
[2] = molecular target: ELIC-α1GABAAR chimera, Q242W mutant (Erwinia chrysanthemi | human)
[3] = molecular target: ELIC-α1GABAAR chimera, W246L mutant (Erwinia chrysanthemi | human)
[4] = molecular target: ELIC-α1GABAAR chimera, WT (Erwinia chrysanthemi | human)

ELIC-α1GABAAR chimera, Q242L mutant
stoichiometry N [1]: 5

ELIC-α1GABAAR chimera, Q242W mutant
stoichiometry N [2]: 5

ELIC-α1GABAAR chimera, W246L mutant
stoichiometry N [3]: 5

ELIC-α1GABAAR chimera, WT
stoichiometry N [4]: 5

ELIC-β3GABAAR chimera
stoichiometry N [4]: 5
